Laboratory results published in patent US20060084596A1 (UNIVERSITY OF SOUTH FLORIDA, published 2006).
Where “and” joins values, the source holds several entries; their conditions need not be identical. Identical values can stand only once. Positions of bridges follow the written chain, without caps; N, C: chain ends. Non-standard residues stand in square brackets, D forms with d. No end group written: not given here. d2Nal = N[C@H](Cc1ccc2ccccc2c1)C(=O)O; dAbu = CC[C@@H](N)C(=O)O

B1: GFB-128 (designed binder)
peptide: GDGY
modifications: linker N-C via 3‑aminomethyl‑5‑aminobenzamide; also: loops on DPM-2 scaffold
B2: GFB-105 (designed binder)
peptide: GDFD
modifications: linker N-C via 3‑aminomethyl‑5‑aminobenzamide; also: four loops on But-Calix calix[4]arene scaffold
B3: GFB-129 (designed binder)
peptide: GDDD
modifications: linker N-C via 3‑aminomethyl‑5‑aminobenzamide; also: loops on DPM-2 scaffold
B4: GFB-137 (designed binder)
peptide 1: GDGY
peptide 2: GDDG
modifications: not fully specified; also: linker to a chain's N/C-terminus via 3-aminomethyl-5-aminobenzamide
B5: GFB-119 (designed binder)
peptide: PDGD
modifications: linker N-C via 3‑aminomethyl‑5‑aminobenzamide; also: four loops on But-Calix scaffold
B6: GFB-106 (designed binder)
peptide: GDDD
modifications: linker N-C via 3‑aminomethyl‑5‑aminobenzamide; also: four loops on But-Calix calix[4]arene scaffold
B7: GFB-112 (designed binder)
peptide: ADGD
modifications: linker N-C via 3‑aminomethyl‑5‑aminobenzamide; also: four loops on But-Calix calix[4]arene scaffold
B8: GFB-110 (designed binder)
peptide: GDAD
modifications: linker N-C via 3‑aminomethyl‑5‑aminobenzamide; also: four loops on But-Calix calix[4]arene scaffold
B9: GFB-118 (designed binder)
peptide: [d2Nal]DGD
modifications: linker N-C via 3‑aminomethyl‑5‑aminobenzamide; also: four loops joined to But-Calix calix[4]arene scaffold
B10: GFB-102 (designed binder)
peptide: GDFD
modifications: linker N-C via 3‑aminomethyl‑5‑aminobenzamide; also: four loops on O4-Calix calix[4]arene scaffold
B11: GFB-104 (designed binder)
peptide: GDGD
modifications: linker N-C via 3‑aminomethyl‑5‑aminobenzamide; also: four loops on O3-Calix calix[4]arene scaffold
B12: GFB-122 (designed binder)
peptide: GDDY
modifications: linker N-C via 3‑aminomethyl‑5‑aminobenzamide; also: four loops on But-Calix calix[4]arene scaffold
B13: GFB-101 (designed binder)
peptide: GFGD
modifications: linker N-C via 3‑aminomethyl‑5‑aminobenzamide; also: four loops on O4-Calix calix[4]arene scaffold
B14: GFB-121 (designed binder)
peptide: [dAbu]DGD
modifications: linker N-C via 3‑aminomethyl‑5‑aminobenzamide; also: four loops joined to But-Calix calix[4]arene scaffold
B15: GFB-109 (designed binder)
peptide: GDLD
modifications: linker N-C via 3‑aminomethyl‑5‑aminobenzamide; also: four loops on But-Calix calix[4]arene scaffold
B16: GFB-134 (designed binder)
peptide 1: GDGY
peptide 2: GDDY
modifications: also: 3 GDGY loops and 1 GDDY loop on But-Calix scaffold, linker to a chain's N/C-terminus via 3-aminomethyl-5-aminobenzamide
B17: GFB-130 (designed binder)
peptide: GDDY
modifications: linker N-C via 3‑aminomethyl‑5‑aminobenzamide; also: loops on DPM-2 scaffold
B18: GFB-133 (designed binder)
peptide: GDGY
modifications: linker N-C via 3‑aminomethyl‑5‑aminobenzamide; also: 3 GDGY loops on But-Calix scaffold, CO2H at fourth position
B19: GFB-132 (designed binder)
peptide 1: GDGY
peptide 2: GDDG
modifications: also: 3 GDGY loops and 1 GDDG loop on But-Calix scaffold, linker to a chain's N/C-terminus via 3-aminomethyl-5-aminobenzamide
B20: GFB-117 (designed binder)
peptide: GDND
modifications: linker N-C via 3‑aminomethyl‑5‑aminobenzamide; also: four loops on But-Calix scaffold
B21: GFB-107 (designed binder)
peptide: GDGD
modifications: linker N-C via 3‑aminomethyl‑5‑aminobenzamide; also: four loops on But-Calix calix[4]arene scaffold
B22: GFB-136 (designed binder)
peptide 1: GDDD
peptide 2: GDGY
modifications: also: 3 GDDD loops and 1 GDGY loop on But-Calix scaffold, linker to a chain's N/C-terminus via 3-aminomethyl-5-aminobenzamide
B23: GFB-108 (designed binder)
peptide: [dA]DGD
modifications: linker N-C via 3‑aminomethyl‑5‑aminobenzamide; also: four loops on But-Calix calix[4]arene scaffold
B24: GFB-135 (designed binder)
peptide 1: GDGY
peptide 2: GDDD
modifications: also: 3 GDGY loops and 1 GDDD loop on But-Calix scaffold, linker to a chain's N/C-terminus via 3-aminomethyl-5-aminobenzamide

Key:
Experiment in all cases: cell-based or functional assay
[1] = biological target: platelet derived growth factor PDGF-BB (UniProt P01127 82-190)
[2] = biological target: acidic fibroblast growth factor (aFGF) (UniProt P05230 16-155, limits assumed)
[3] = biological target: insulin-like growth factor-1 (IGF-1) (UniProt P05019 49-118)
[4] = biological target: vascular endothelial growth factor (VEGF) (UniProt P15692-4 27-191, limits assumed)
Chain of vascular endothelial growth factor (VEGF) (P15692 other isoform, or with tags, fused parts or gaps limits assumed): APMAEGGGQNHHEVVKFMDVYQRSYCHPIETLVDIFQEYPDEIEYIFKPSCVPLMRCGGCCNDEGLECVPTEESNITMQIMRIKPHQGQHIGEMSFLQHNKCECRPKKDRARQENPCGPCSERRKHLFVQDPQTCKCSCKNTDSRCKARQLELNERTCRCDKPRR

Chain of acidic fibroblast growth factor (aFGF) (P05230 16-155 limits assumed): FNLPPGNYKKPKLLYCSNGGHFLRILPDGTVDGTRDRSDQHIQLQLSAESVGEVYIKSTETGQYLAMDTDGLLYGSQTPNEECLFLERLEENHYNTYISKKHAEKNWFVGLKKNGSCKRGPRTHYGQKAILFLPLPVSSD
Chain of insulin-like growth factor-1 (IGF-1) (P05019 49-118 limits assumed): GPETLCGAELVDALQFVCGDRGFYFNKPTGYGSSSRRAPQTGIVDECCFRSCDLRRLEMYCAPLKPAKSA
Chain of platelet derived growth factor PDGF-BB (P01127 82-190 limits assumed): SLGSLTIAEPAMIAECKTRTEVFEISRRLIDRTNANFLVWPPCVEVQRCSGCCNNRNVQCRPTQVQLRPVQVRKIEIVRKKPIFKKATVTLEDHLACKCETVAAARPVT

| Binder | IC50, p42/Erk2 [1] | (IC50) Inhibition, p44 [2] | % Inhibition at 100 µM, IGF1R-Y-P [3] | % Inhibition at 100 µM, p42 [3] | % Inhibition at 100 µM, p44 [3] | IC50, p42 [4] | IC50, p44 [4] | (IC50) Inhibition, p42 [2] | IC50, PDGFR-Y-P [1] | IC50, p42/Erk2: p42 [1] | (IC50) Inhibition, p42 (mean) [2] | (IC50) Inhibition, p44 (mean) [2] | IC50, Flk-1-Y-P [4] | IC50, p42/Erk2: p44 [1] |
| --- | --- | --- | --- | --- | --- | --- | --- | --- | --- | --- | --- | --- | --- | --- |
| B1 | > 50 µM | 43.3 µM per head; likely % | -12% | -6.1% | 38.2% |  |  |  |  |  |  |  |  |  |
| B2 |  | 75.7 µM per head; likely % | 1.3% |  |  | > 100 µM | > 100 µM | 66.4 µM per head; likely % |  |  |  |  |  |  |
| B3 |  |  | 3.4% | 2.8% | 33.4% |  |  |  |  |  |  |  |  |  |
| B4 |  | 19.9 µM per head; likely % |  |  |  |  |  |  | 0.4 µM | 2.9 µM |  |  |  |  |
| B5 | 32 µM | 78.9 µM per head; likely % and 81.7 µM per head; likely % and 58.1 µM per head; likely % | 16.7% | 29.7% | 66.2% |  |  | 62.6 µM per head; likely % and 72.1 µM per head; likely % and 47.8 µM per head; likely % | 20 µM |  | 60.8 µM per head; likely % | 72.9 µM per head; likely % |  |  |
| B6 | 33 µM |  |  |  |  | < 10 µM | < 10 µM |  | 8 µM |  |  |  | < 10 µM |  |
| B7 | 26 µM | 62.9 µM per head; likely % and 39.6 µM per head; likely % | 0.6% | -7.6% | 30.4% | 10 µM | 10 µM | 59.7 µM per head; likely % and 40.2 µM per head; likely % | 29 µM |  |  |  | < 10 µM |  |
| B8 | 7 µM | 85.2 µM per head; likely % and 98.9 µM per head; likely % |  |  |  |  |  | 76.1 µM per head; likely % and 93 µM per head; likely % | 1.7 µM |  |  |  |  |  |
| B9 | 1.2 µM | 30.5 µM per head; likely % | 1.5% | 16.4% | 55.2% |  |  | 20.6 µM per head; likely % | 0.7 µM |  |  |  |  |  |
| B10 |  |  |  |  |  | > 100 µM | > 100 µM |  |  |  |  |  |  |  |
| B11 |  |  | -28.4% |  |  |  |  |  |  |  |  |  |  |  |
| B12 | 19 µM | 71.6 µM per head; likely % |  |  |  |  |  | 57.3 µM per head; likely % | 1.7 µM |  |  |  |  |  |
| B13 | > 500 µM |  |  |  |  | > 100 µM | > 100 µM |  | > 500 µM |  |  |  | > 100 µM |  |
| B14 | 8.5 µM | 8.9 µM per head; likely % | 33.8% | 28.3% | 62.1% |  |  | 8.7 µM per head; likely % | 5.6 µM |  |  |  |  |  |
| B15 | 15 µM | 79.7 µM per head; likely % |  | 68.3% | 79.7% |  |  | 68.3 µM per head; likely % | 7.5 µM |  |  |  |  |  |
| B16 |  | 64.1 µM per head; likely % | 16.8% | 4.9% | 53.5% |  |  | 54.8 µM per head; likely % | 1.9 µM | 2.5 µM |  |  |  | 2.6 µM |
| B17 |  | 78.9 µM per head; likely % |  |  |  |  |  | 78.9 µM per head; likely % |  |  |  |  |  |  |
| B18 |  | 101 µM per head; likely % |  |  |  |  |  |  |  | 3.2 µM |  |  |  | 3 µM |
| B19 |  | 50.2 µM per head; likely % |  |  |  |  |  |  | 0.4 µM | 2.9 µM |  |  |  |  |
| B20 | 36 µM | 80.8 µM per head; likely % and 84.3 µM per head; likely % | 4.9% | 17.1% | 61.5% |  |  | 63.4 µM per head; likely % and 67.6 µM per head; likely % | 5.8 µM |  |  |  |  |  |
| B21 |  |  |  |  |  | 100 µM | 100 µM |  |  |  |  |  | < 10 µM |  |
| B22 |  | 84.5 µM per head; likely % | 40.6% | 15% | 59.5% |  |  | 73.1 µM per head; likely % | 3 µM | 25 µM |  |  |  | 24 µM |
| B23 | 57 µM | 80.1 µM per head; likely % |  | 67.8% | 80.1% | 50 µM | 50 µM | 67.8 µM per head; likely % | 9 µM |  |  |  | 10 µM |  |
| B24 |  | 53.9 µM per head; likely % | 16.2% | 0.8% | 46.1% |  |  | 44.1 µM per head; likely % | 1.9 µM | 3.2 µM |  |  |  | 24 µM |
